Assay results: US20200157519A1 (IMMUNWORK, published 2020)

T1: human fibrin (human fibrinogen coated on the plate and treated with thrombin) (human, UniProt P02671 36-629; P02675 45-491; P02679 27-437)
T1 construct: Made on the plate: coated human fibrinogen (Sigma) treated with 1.0 U/mL thrombin, CaCl2 and L-cysteine
T1 sequence (looked up) 1: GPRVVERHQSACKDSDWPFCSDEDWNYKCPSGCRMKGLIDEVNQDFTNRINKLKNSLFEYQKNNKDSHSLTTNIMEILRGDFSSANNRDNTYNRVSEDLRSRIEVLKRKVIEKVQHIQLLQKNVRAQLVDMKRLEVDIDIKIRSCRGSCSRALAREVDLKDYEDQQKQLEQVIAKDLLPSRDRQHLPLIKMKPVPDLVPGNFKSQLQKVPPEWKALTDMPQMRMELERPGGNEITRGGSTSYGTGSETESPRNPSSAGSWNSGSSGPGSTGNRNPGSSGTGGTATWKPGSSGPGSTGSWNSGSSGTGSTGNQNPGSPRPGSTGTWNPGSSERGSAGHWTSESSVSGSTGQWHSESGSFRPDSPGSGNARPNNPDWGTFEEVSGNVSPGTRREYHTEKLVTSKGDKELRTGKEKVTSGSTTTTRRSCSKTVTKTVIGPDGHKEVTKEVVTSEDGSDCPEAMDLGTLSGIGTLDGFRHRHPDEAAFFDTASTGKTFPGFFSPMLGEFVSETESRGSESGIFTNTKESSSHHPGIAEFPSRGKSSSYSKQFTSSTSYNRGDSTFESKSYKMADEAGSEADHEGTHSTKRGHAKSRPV
T1 sequence (looked up) 2: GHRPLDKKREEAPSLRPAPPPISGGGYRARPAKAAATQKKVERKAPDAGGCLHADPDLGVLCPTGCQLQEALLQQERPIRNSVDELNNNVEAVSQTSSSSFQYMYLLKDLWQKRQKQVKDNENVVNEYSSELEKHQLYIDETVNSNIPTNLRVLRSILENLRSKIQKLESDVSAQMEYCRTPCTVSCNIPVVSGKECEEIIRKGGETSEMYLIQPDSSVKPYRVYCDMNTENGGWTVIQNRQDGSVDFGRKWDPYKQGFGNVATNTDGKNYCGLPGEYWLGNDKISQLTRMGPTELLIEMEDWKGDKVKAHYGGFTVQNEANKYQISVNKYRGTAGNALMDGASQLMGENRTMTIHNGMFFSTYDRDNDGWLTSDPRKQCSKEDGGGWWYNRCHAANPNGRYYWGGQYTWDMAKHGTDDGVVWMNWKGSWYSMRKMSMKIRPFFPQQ
T1 sequence (looked up) 3: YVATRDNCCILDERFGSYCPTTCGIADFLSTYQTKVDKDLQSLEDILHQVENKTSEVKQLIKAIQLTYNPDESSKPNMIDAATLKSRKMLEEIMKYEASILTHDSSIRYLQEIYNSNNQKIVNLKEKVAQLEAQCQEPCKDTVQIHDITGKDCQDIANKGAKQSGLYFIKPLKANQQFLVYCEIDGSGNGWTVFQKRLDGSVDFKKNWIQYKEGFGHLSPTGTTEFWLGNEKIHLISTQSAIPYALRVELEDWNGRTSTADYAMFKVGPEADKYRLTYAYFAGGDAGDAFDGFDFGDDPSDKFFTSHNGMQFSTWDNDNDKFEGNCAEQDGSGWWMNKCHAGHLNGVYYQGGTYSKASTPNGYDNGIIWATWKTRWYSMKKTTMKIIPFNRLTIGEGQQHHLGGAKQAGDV

T2: crosslinked human fibrin treated by human factor XIIIa (human, UniProt P02671 36-629; P02675 45-491; P02679 27-437, crosslinked by factor XIIIa)
T2 construct: Coated human fibrinogen treated with thrombin and 0.55 ug factor XIIIa (Zedira) per well; also called crosslinked fibrin
T2 sequence (looked up) 1: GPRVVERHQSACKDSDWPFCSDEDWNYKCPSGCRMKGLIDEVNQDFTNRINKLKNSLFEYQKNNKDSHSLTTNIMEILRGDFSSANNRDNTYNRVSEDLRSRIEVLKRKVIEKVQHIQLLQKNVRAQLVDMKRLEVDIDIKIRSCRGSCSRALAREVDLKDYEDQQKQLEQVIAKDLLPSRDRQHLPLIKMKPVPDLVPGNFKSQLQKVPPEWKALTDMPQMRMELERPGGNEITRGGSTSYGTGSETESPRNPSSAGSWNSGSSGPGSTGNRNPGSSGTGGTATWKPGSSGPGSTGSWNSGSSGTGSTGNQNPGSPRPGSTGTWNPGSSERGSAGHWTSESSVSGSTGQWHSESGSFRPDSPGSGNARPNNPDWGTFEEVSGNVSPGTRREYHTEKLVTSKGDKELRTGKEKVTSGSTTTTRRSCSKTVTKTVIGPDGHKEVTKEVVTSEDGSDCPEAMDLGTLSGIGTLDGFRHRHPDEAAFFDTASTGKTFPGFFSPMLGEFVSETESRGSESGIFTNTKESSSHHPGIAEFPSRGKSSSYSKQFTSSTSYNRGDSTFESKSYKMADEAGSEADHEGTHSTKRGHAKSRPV
T2 sequence (looked up) 2: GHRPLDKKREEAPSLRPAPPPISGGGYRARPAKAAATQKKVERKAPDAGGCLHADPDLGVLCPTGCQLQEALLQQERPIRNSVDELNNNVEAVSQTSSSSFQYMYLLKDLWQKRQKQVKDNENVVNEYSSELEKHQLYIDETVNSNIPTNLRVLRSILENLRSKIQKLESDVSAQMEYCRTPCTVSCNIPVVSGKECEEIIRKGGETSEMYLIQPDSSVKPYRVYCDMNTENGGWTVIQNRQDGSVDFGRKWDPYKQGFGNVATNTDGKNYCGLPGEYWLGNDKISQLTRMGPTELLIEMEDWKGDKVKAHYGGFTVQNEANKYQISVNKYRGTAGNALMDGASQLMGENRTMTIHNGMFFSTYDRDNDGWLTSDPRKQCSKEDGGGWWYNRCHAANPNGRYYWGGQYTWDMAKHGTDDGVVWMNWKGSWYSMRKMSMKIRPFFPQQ
T2 sequence (looked up) 3: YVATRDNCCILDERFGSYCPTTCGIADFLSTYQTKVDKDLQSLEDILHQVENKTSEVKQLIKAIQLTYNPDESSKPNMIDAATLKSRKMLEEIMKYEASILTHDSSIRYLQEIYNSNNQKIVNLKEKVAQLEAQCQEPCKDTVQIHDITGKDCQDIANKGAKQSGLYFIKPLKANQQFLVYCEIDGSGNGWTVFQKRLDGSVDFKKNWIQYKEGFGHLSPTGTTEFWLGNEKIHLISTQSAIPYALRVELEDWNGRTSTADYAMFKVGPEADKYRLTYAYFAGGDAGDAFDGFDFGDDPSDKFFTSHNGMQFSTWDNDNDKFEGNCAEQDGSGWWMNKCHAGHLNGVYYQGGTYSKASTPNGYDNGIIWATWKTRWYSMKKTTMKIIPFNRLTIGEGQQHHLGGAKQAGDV

B1: phage-displayed 3D5 scFv (scFv)
scFv: DIQMTQSPSSLSASVGDRVTITCRASQDVSNNVAWYQQKPGKAPKLLIFWSPWLYSGVPSRFSGSGSGTDFTLTISSLQPEDFATYYCQQGWDSPVTFGQGTKVEIKRGGGGSGGGGSGGGGSEVQLVESGGGLVQPGGSLRLSCAASGFTISDFGIHWVRQAPGKGLEWVASIWPSGGYTYYADSVKGRFTISADTSKNTAYLQMNSLRAEDTAVYYCARSWFYSWYDYWGQGTLVTVSS
notes: Tested as secreted scFv in culture supernatant, detected through its E-tag
B2: scFv clone 3C2 (scFv, V domains shown)
VH: EVQLVESGGGLVQPGGSLRLSCAASGFTIGNSSIHWVRQAPGKGLEWVAGIWPYWGSTYYADSVKGRFTISADTSKNTAYLQMNSLRAEDTAVYYCARFGINNDGFMDYWGQGTLVTVSS
VL: DIQMTQSPSSLSASVGDRVTITCRASQDVSGWVAWYQQKPGKAPKLLISSTGSLYSGVPSRFSGSGSGTDFTLTISSLQPEDFATYYCQQYYDFPITFGQGTKVEIKR
notes: Tested as a secreted scFv with E-tag from the phage library
B3: scFv clone 8F2 (scFv, V domains shown)
VH: EVQLVESGGGLVQPGGSLRLSCAASGFTINNYGIHWVRQAPGKGLEWVAGIWPYWGYTYYADSVKGRFTISADTSKNTAYLQMNSLRAEDTAVYYCARFDSNSYSSYSDGFMDYWGQGTLVTVSS
VL: DIQMTQSPSSLSASVGDRVTITCRASQDVDNSVAWYQQKPGKAPKLLISSARSLYSGVPSRFSGSGSGTDFTLTISSLQPEDFATYYCQQYYNYPITFGQGTKVEIKR
notes: as for B2
B4: scFv clone 7A3 (scFv, V domains shown)
VH: EVQLVESGGGLVQPGGSLRLSCAASGFTINDWSIHWVRQAPGKGLEWVAYIGPFWGSTFYADSVKGRFTISADTSKNTAYLQMNSLRAEDTAVYYCARGYFGFDYWGQGTLVTVSS
VL: DIQMTQSPSSLSASVGDRVTITCRASQDVGGWVAWYQQKPGKAPKLLISSPRSLYSGVPSRFSGSGSGTDFTLTISSLQPEDFATYYCQQYFSSPFTFGQGTKVEIKR
notes: as for B2
B5: recombinant anti-fibrin 3D5 antibody (full-length) (antibody, human IgG1, kappa, V domains shown)
VH: EVQLVESGGGLVQPGGSLRLSCAASGFTISDFGIHWVRQAPGKGLEWVASIWPSGGYTYYADSVKGRFTISADTSKNTAYLQMNSLRAEDTAVYYCARSWFYSWYDYWGQGTLVTVSS
VL: DIQMTQSPSSLSASVGDRVTITCRASQDVSNNVAWYQQKPGKAPKLLIFWSPWLYSGVPSRFSGSGSGTDFTLTISSLQPEDFATYYCQQGWDSPVTFGQGTKVEIKR
notes: Expressed from the pG1K vector in Expi293F cells, purified on Protein A
B6: recombinant anti-fibrin 102-10 antibody (full-length) (antibody, human IgG1, kappa, V domains shown)
VH: QIQLVQSGPELKKPGETVKISCKASGYTFTNYGMNWVKQAPGKGLKWMGWINTYTGEATYADDFKGRFAFSLETSANTAYVQINNLKNEDTATYFCARLMDYWGQGTSVTVSS
VL: DIQMTQSPSSLSASLGGKVTITCKASQDINKYIAWFQHKPGKGPRLLIHYTSTLQPGIPSRFSGSGSGRDYSFSISNLEPEDLATYYCLQYDNLTWTFGGGTKLEIKR

Experiments:
[1] = target: T1, human fibrin (human fibrinogen coated …); assay: single colony ELISA, secreted scFv on coated fibrin, anti-E-tag-HRP
Procedure: (§1) E. coli strain ER2738 infected with single-clonal phages each harboring a selected scFv gene in its phagemid was grown in the mid-log phase in 2YT broth (16 g/L tryptone, 10 g/l yeast extract, 5 g/l NaCl, pH 7.0) with 100 μg/ml ampicillin in deep well at 37° C. with shaking. After broth reaching an OD₆₀₀ of 1.0, IPTG was added to a final concentration of 1 μg/ml. The plates were incubated at 37° C. overnight with rigorously shaking. Thereafter, the plates were centrifuged at 4,000 g for 15 minutes at 4° C.
(§2) For soluble scFv binding test, ELISA was carried out. In brief, 96-well Maxisorp 96-well plate (Nunc) was coated with fibrin (0.5 μg/100 μL PBS per well) or a negative control antigen, human fibrinogen, for 18 hours with shaking at 4° C. After treated with 300 μL of blocking buffer for one hour, 100 μL of secreted scFv in the supernatant was mixed with 100 μL of blocking buffer and then added to the coated plate for another one hour. Goat anti-E-tag antibody (conjugated with HRP, 1:4000, Cat. No. AB19400, Abcam) was added to the plate for one hour. TMB substrate (50 μL per well) was added to each well and the absorbance at 450 nm was measured after reactions were stopped by adding 1 N HCl (50 μL per well). The OD₄₅₀ for each well was measured to determine the binding affinity of each scFv clone to fibrin or fibrinogen. For each scFv clone, the OD₄₅₀ value with respect to fibrin was divided by with the OD₄₅₀ value with respect to fibrinogen to obtain an OD₄₅₀ ratio representing the selective binding of said scFv to fibrin over fibrinogen. In the single colony ELISA analysis, a total of 192 phage clones after the 3rd panning round was subjected to the present analysis. Among them, 12 scFv clones that bound to fibrin with an OD₄₅₀ ratio greater than 10 were further characterized by sequencing their scFv-coding gene. Six different DNA sequences were identified. […] The amino acid sequence of an scFv clone D10, which binds to human fibrin with an OD₄₅₀ of 1.3, is shown in SEQ ID NO: 4.

[2] = target: T1, human fibrin (human fibrinogen coated …); assay: single colony ELISA, OD450 on fibrin divided by OD450 on fibrinogen
Procedure: as §1, §2

[3] = target: T2, crosslinked human fibrin treated by …; assay: ELISA on crosslinked fibrin plate, HRP-protein L
[4] = target: T1, human fibrin (human fibrinogen coated …); assay: ELISA on fibrin-coated plate, HRP-protein L
Procedure: Each fibrin plate was prepared as follows. 100 μL of TBS containing a final concentration of 1.0 U/mL thrombin (Sigma), 2 mM CaCl, and 7 mM L-cysteine (Merck) was added to the wells of the fibrinogen plate, which was then washed with TBS and blocked with the buffer (5% non-fat dry milk/PBS). After the blocking, 100 μL of antibodies were added to each well, and the plate was incubated at room temperature for 1 hour. The plate was then washed three times, the HRP-conjugated protein L diluted to 1/5000 was added to the wells and incubated for 1 hour at room temperature. The wells were washed three times and added with 100 μL of TMB substrate buffer. 5 minutes later, the color development was stopped with 1 M HCl. The optical density (OD) was measured at 450 nm using a microplate reader.

Row | Binder | OD450_Fibrin [1] | OD450 ratio (fibrin over fibrinogen) [2] | binding result [3] | binding result [4]
1 | B1 | 0.829 OD450 | 377 |  | 
2 | B2 | 0.759 OD450 | 64.9 |  | 
3 | B3 | 0.527 OD450 | 14.4 |  | 
4 | B4 | 0.428 OD450 | 20.5 |  | 
5 | B5 |  |  | binds | binds
6 | B6 |  |  | binds | binds
